Data from patent publication US7625707B2, “Antibacterial agents and methods of identifying and utilizing same” (Ramot At Tel Aviv University Ltd., priority 2003, dated 2009).

T1: GST-YoeB fusion protein (Escherichia coli, UniProt P69348)
T1 construct: made in house; host or cells: E. coli BL21(DE3) pLysS
T1 sequence (P69348 1-84): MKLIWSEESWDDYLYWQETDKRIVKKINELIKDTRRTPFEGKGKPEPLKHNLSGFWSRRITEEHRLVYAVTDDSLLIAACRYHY


Tests used:
[1] = target: T1, GST-YoeB fusion protein; assay: Peptide array analysis of YefM tridecamer peptides probed with GST-YoeB; format: binding, E. coli
Description: Peptide array analysis: Tridecamer peptides corresponding to consecutive overlapping sequences of the YefM polypeptide were arrayed on a cellulose membrane matrix and covalently bound to a Whatman 50 cellulose support (Whatman). Approximately 50 μg aliquots of soluble GST-YoeB fusion were examined for their selective peptide binding ability, on the basis of YefM-YoeB putative interaction.
For low stringency binding the cellulose membrane was briefly washed in 100% ethanol, washed three times with Tris-buffered saline (TBS; 50 mM Tris-HCl pH 7.5, 150 mM NaCl), then blocked for 4 hours using 5% (w/v) non-fat milk in TBS. The membrane was then washed three times in TBS+0.1% (v/v) tween 20 (TBS-T) and incubated with 10 ml GST-YoeB solution at 4° C. and slow shaking for 14 hours.
For high stringency binding the washing steps were extensive and multiple and the blocking solution washing step was reduced to a single brief wash.
Following incubation, the membrane was washed once in TBS-T then supplemented with 10 ml suspension comprising TBS, mouse anti-GST antibody and horseradish peroxidase conjugated goat anti-mouse antibody in the appropriate titers. Following 1 hour incubation at room temperature the membrane was briefly washed with TBS-T and TBS. Bound GST-YoeB proteins were detected through an enhanced chemiluminescence reaction following an exposure to a sensitive film.

[2] = system: E. coli TOP10; assay: Colony formation analysis of bacteria overexpressing YefM, YoeB or both; settings: L-arabinose 0.0005-0.2% on LB-Amp agar, 37° C., 20 hours
Description: (§1) The generated constructs were introduced to E. coli strain TOP10.
Colony formation analysis: E. coli TOP10 bacteria harboring pBAD-yefM, pBAD-yoeB, or pBAD-yefMyoeB, were cultured in LB-Amp and incubated at 37° C. overnight Following incubation the cultures were diluted to an A600 of 0.01 in a fresh LB-Amp and incubated at 37° C. until an absorbance of 0.5 at A600 was reached. The cultures were then diluted in ten-fold dilutions steps and applied as 5 μl droplets on LB-Amp agar plates containing L-arabinose at a concentration gradient of 0.2%, 0.1%, 0.05%, 0.02%, 0.005% and 0.0005%. An LB-Amp agar plate containing 0.2% glucose was used as a negative control. All plates were incubated at 37° C. for at least 20 hours.

[3] = system: E. coli TOP10; assay: Growth rate analysis of bacteria overexpressing YefM, YoeB or both; settings: 0.2% L-arabinose induction compared with 0.2% glucose control, LB-Amp, 37° C.
Description: as §1
Growth rate analysis: E. coli TOP10 bacteria transformed with pBAD-yefM, pBAD-yoeB, and pBAD-yefMyoeB were cultured in LB broth supplemented with 100 μg/ml ampicillin (LB-Amp) and incubated at 37° C. overnight. Following incubation, cultures were diluted in fresh LB-Amp and their optical density was adjusted to approximately 0.01 (A600). Each culture was then divided into two equal volumes. One volume was supplemented with 0.2% L-arabinose to induce expression of the target gene and the second volume was supplemented with 0.2% D-glucose to suppress expression. All cultures were incubated at 37° C. and 200 rpm for up to 9 hours. Cell density was estimated periodically by optical absorbance at 600 nm. The effect of target gene induction on bacterial growth during the logarithmic growth phase was determined as described above with the exception that cultures were divided and supplemented with 0.2% L-arabinose, or 0.2% D-glucose at the time they had reached optical density of approximately 0.45 (A600).

[4] = Thermal denaturation monitored by CD ellipticity at 222 nm; format: physicochemical; settings: PBS pH 7.3
Description: Circular Dichroism (CD): CD spectra were obtained by using an AVIV 202 spectrapolarimeter equipped with temperature-controlled sample holder and a 5 mm path length cuvette. Mean residual ellipticity, [θ], was calculated as, [θ]=[100×θ×m]/[c×L]
The identity of YefM and YoeB-His was verified using protein spots isolation from Coomassie blue stained gels and was accomplished by mass spectrometry, according to established protocols (Bandow, J. E., Becher, D., Buttner, K, Hochgrafe, F., Freiberg, C., Brotz, H. and Hecker, M. (2003) Proteomics. 3, 299-306). Briefly, protein spots were excised from stained gels and the gel pieces were treated trypsin solution (Pomega) for 16 h at 37° C. Peptides were extracted from gel onto a sample plate for MALDI-MS. Obtained peptides masses were determined in the positive ion reflector mode in a Voyager-DE STR mass spectrometer (Applied Biosystems). […] To determine the concentrations of YoeB-His and YefM polypeptides, tyrosine and tryptophan absorbance measurements in 0.1 M KOH were used. YefM concentration was calculated using the extinction coefficient of 2381 M^−1 cm^−1 at 293.2 nm for single tyrosine (4 tyr). YoeB-His concentration was calculated using extinction coefficient at 280 nm of 1507 M^−1 cm^−1 for single tyrosine (6 tyr) and 5377 M^−1 cm^−1 for single tryptophan (4 trp). […]

[5] = boiled 10 minutes, supernatant (FIG. 4D)

Molecule	bacterial colony formation on overexpression [2]	growth of bacteria overexpressing the polypeptide [3]	also measured
CC[C@H](C)[C@H](NC(=O)[C@@H](NC(=O)[C@@H](N)CCCNC(=N)N)[C@@H](C)O)C(=O)N[C@@H](CO)C(=O)N[C@@H](Cc1ccc(O)cc1)C(=O)N[C@@H](CO)C(=O)N[C@@H](CCC(=O)O)C(=O)N[C@@H](C)C(=O)N[C@@H](CCCNC(=N)N)C(=O)N[C@@H](CCC(N)=O)C(=O)N[C@@H](CC(N)=O)C(=O)N[C@@H](CC(C)C)C(=O)N[C@@H](CO)C(=O)O [YefM11-23]	–	–	binding of YoeB-GST to arrayed tridecamer peptide ([1]; high stringency, single amino-acid shift between peptides (FIG. 6B)): best binding; binding of YoeB-GST to arrayed tridecamer peptide ([1]; low stringency, two amino-acids shift between peptides (FIG. 6A)): positively identified
YoeB: E. coli toxin polypeptide, SEQ ID NO: 77 (protein, listed as Escherichia coli) MKLIWSEESWDDYLYWQETDKRIVKKINELIKDTRRTPFEGKGKPEPLKHNLSGFWSRRITEEHRLVYAVTDDSLLIAACRYHY	inhibited	substantially reduced	–
YoeB-His: YoeB toxin expressed in fusion to myc-epitope and his-tag (protein, left off: small tags and cut ends) MKLIWSEESWDDYLYWQETDKRIVKKINELIKDTRRTPFEGKGKPEPLKHNLSGFWSRRITEEHRLVYAVTDDSLLIAACRYHY	–	–	polypeptide melting point (TM) [4]: approximately 60 °C
YefM and YoeB: toxin-antitoxin pair co-overexpressed in E. coli TOP10 from pBAD-yefMyoeB (protein, UniProt P69346 1-83; P69348 1-84, looked up) Antitoxin YefM: MRTISYSEARQNLSATMMKAVEDHAPILITRQNGEACVLMSLEEYNSLEETAYLLRSPANARRLMDSIDSLKSGKGTEKDIIE Toxin YoeB: MKLIWSEESWDDYLYWQETDKRIVKKINELIKDTRRTPFEGKGKPEPLKHNLSGFWSRRITEEHRLVYAVTDDSLLIAACRYHY	unaffected	remained normal	–
YefM: E. coli antitoxin polypeptide, 92 amino acids, SEQ ID NO: 76, natively unfolded (protein, listed as Escherichia coli) MNCTKEEIDMRTISYSEARQNLSATMMKAVEDHAPILITRQNGEACVLMSLEEYNSLEETAYLLRSPANARRLMDSIDSLKSGKGTEKDIIE	inhibited	substantially reduced	solubility during boiling [5]: extraordinary solubility
